According to US20210115121A1:

Molecular target: human Tau P301S from brain of P301S Tau transgenic mice (human) (UniProt P10636)
Experiment: cell-based or functional assay

Chain of human Tau P301S from brain of P301S Tau transgenic mice (human) (P10636 other isoform, or with tags, fused parts or gaps P301S P301S P301S P301S): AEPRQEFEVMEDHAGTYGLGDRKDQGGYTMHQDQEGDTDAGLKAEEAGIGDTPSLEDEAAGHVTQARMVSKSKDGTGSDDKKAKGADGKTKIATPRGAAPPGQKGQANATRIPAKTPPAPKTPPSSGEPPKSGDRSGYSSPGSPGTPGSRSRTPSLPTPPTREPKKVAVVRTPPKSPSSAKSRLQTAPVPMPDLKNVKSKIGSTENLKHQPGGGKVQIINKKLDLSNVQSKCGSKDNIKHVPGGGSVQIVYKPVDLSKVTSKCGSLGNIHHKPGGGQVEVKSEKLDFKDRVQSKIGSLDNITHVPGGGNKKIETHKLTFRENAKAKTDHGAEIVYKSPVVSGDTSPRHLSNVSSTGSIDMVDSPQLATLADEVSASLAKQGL

B1: AB1 having a rat VL of SEQ ID NO: 7 and a rat VH of SEQ ID NO.:8 (antibody, IgG1, V domains shown)
VH: EVKLEESGPGLMQPSETLSLTCTVSGFSLTSNDIAWVRQPLGKGLVWMGTIWTDGSTNYNSAVQSRLSISRDTSKSQFFLKMNSLQPEDTGTYYCARHRLYYGAFDYWGQGTMVTVS
VL: DIVMTQTPVSLSVTLGDQASISCRSSQSLEYSDGYTYLEWYLQKPGQSPQLLIYEVSNRFSGVPDRFIGSGSGTDFTLKISRVEPEDLGVYYCFQATHNPYTFGAGTKLEIK
Question: For B1, which IC50 (cellular Tau aggregation assay) is on record?
Answer: 2 nM

Question: And the Imax (maximal efficacy at 300 nM, cellular Tau aggregation assay)?
Answer: 93%
